{"source": "the DeepSol protein solubility set"}
{"test": "soluble on expression in E. coli; label from the status in PepcDB or PDB records"}
{"sequence": "MGSDKIHHHHHHMLKPDRLRALAEALTRQNVMRLRDAAGLLGVSEMTVRRDIAGSPERFTYLGGYIVSATDVPNNAGYSLEEEKDHFAQAKAEASAVAAGLIGNNETLFIDCGTTLTTLARLIPLERHVTVVCYSLNVAEILRRKPNVRMILLGGVYVPSSDSFAGEESLEMLRRMGINKAFISAGGVDTARGVTCWNFHEVALKQAAMASAVERHLVVDQSKFGVVKAVRFSQVDDFDSIITEKGQQLRKRR", "soluble on expression in E. coli": "not soluble"}
{"sequence": "SVKRLFKVRSDLDFAEQLWCKMSSSVISYQDLVKCFTLIIQSLQRGDIQPWLHSGSNSLLSKLIHQSYHGTMDTVSLSGTIPVQMLLEIGLDKLKKDYISFFIGQELASLNHLEYFIAPSVDIQEQVYRVQKLHHILEILVSCMPFIKSQHELLFSLTQICIKYYKQNPLDEQHIFQLPVRPTAVKNLYQSEKPQKWRVEIYSGQKKIKTVWQLSDSSPIDHLNFHKPDFSELTLNGSLEERIFFTNMVTCSQVHFK", "soluble on expression in E. coli": "soluble"}
{"sequence": "PFKKRRTEDEIRKQCPWATLGRKGGRQPNIITSLELDSAVMEQNNLRFQKKYAEIEANEVRYEEYQTEDADYILVAFGSSARICNKTVQLARQQGIKAGILRPITLWPFPTKEIAKLADRAKGFLVAELNAGQMIEDVRLAVNGKVPVEHYGRMGGMLFSPDEILQALKEKVIK", "soluble on expression in E. coli": "not soluble"}
{"sequence": "TTTVGLVCKDGVVMATEKRATMGNFIASKAAKKIYQIADRMAMTTAGSVGDAQFLARIIKIEANLYEIRRERKPTVRAIATLTSNLLNSYRYFPYLVQLLIGGIDSEGKSIYSIDPIGGAIEEKDIVATGSGSLTAYGVLEDRFTPEIGVDEAVELAVRAIYSAMKRDSASGDGIDVVKITEDEFYQYSPEEVEQILAKFRK", "soluble on expression in E. coli": "soluble"}
{"sequence": "MGSDKIHHHHHHMFYYNQYVRAQSLDEAYELYQKKPNFVLGGMLWLKMKNKTLGTAIDLCDLGLDQIDEDENEFRIGAYATLRQIETHEALNAYTHGAIAESVRHIVGVQFRNVATVGGSIWGRFGFSDVMTIFRALGAKVQLHKAGIMDLDEFAALPRTTRDVLVSVIVPKNAKGVVYLSQRNQSTDFPVLTCAVANRSGRYVAVIGASPYMAEPVWDEDGILDGIADAKTDGNAALTDNSETNAKIDKFAEYVAEHIRFGSNIRAGAEYREIICRVLTRRAVTQSLDICDDIKHEH", "soluble on expression in E. coli": "not soluble"}
{"sequence": "MRWEELSEQPCSLARVLAILGDRWTLLVLRDCFLGVRRFDDFERSLGVTRHVLADRLKRLVEAEILAKVPYQERPLREEYRLTEKGMELYPAILSLVNWGDRHLAGVEGPPLEHVHKHCGQHMHGVLVCSECGEPLHARDVTVREGLFWKGRLLRRG", "soluble on expression in E. coli": "not soluble"}
{"sequence": "MTPLVKDIIMSSTRMPALFLGHGSPMNVLEDNLYTRSWQKLGMTLPRPQAIVVVSAHWFTRGTGVTAMETPPTIHDFGGFPQALYDTHYPAPGSPALAQRLVELLAPIPVTLDKEAWGFDHGSWGVLIKMYPDADIPMVQLSIDSSKPAAWHFEMGRKLAALRDEGIMLVASGNVVHNLRTVKWHGDSSPYPWATSFNEYVKANLTWQGPVEQHPLVNYLDHEGGTLSNPTPEHYLPLLYVLGAWDGQEPITIPVEGIEMGSLSMLSVQIGLEHHHHHH", "soluble on expression in E. coli": "soluble"}
{"sequence": "MGHHHHHHGGHMSLITVMNRIGVKPEFAAQFEESFRNRAGLVDGMPGFIRNEVLKPTKPGDPYIVLTYWQDEPSFRAWTESDEFKQGHARSGSLPHDAFTGRPVLEVHDVLLSSDNEGGS", "soluble on expression in E. coli": "soluble"}
{"sequence": "MGSDKIHHHHHHMMAVLHRSSDIIAATICRILIPQFYSDNTVPINGNYSCIFLLSYMFPLDSPLLADLYKKYRSRLISRIARLTGCRETAADLAQDAYMRLLDQTGVACPSNPAAYLFRIGRNLAIDHQRRPDFRQHDETSFEEELPSSFSGLDQQAVYRQECEQLWTAIMELPRPVSRALVLSVIEGVSQAAIAEELGVTERTVRRYISKGMAHCQRRLRNPLPPARYDR", "soluble on expression in E. coli": "not soluble"}
{"sequence": "MRTLGLDLGTKTLGVAVSDELGLTAQGLETIAIDTERGDYGLKRLRAIIDEYGVDTIVVGWPKNMNGTLGPRAEASERFAAKLREEFSLPVVLRDERLSTMAAERMLIAADVSRKKRRKVIDKMAAAVILQSYLDSKR", "soluble on expression in E. coli": "not soluble"}
{"sequence": "MAHHHHHHMGTLEAQTQGPGSMNDYKLFRCIQCGFEYDEALGWPEDGIAAGTRWDDIPDDWSCPDCGAAKSDFEMVEVARS", "soluble on expression in E. coli": "soluble"}
{"sequence": "MQNHVISLASAAERRAHIAATFGSRGIPFQFFDALMPSERLEQAMAELVPGLSAHPYLSGVEKACFMSHAVLWEQALDEGLPYIAVFEDDVLLGEGAEQFLAEDTWLEERFDKDSAFIVRLETMFMHVLTSPSGVADYGGRAFPLLESEHCGTAGYIISRKAMRFFLDRFAVLPPERLHPVDLMMFGNPDDREGMPVCQLNPALCAQELHYAKFHDQNSALGSLIEHDRRLNRKQQWRDSPANTFKHRLIRALTKIGREREKRRKRREQTIGKIIVPFQLEHHHHHH", "soluble on expression in E. coli": "soluble"}
{"sequence": "MSLIKIGVIADDFTGATDIASFLVENGLPTVQINGVPTGKMPEAIDALVISLKTRSCPVVEATQQSLAALSWLQQQGCKQIYFKYCSTFDSTAKGNIGPVTDALMDALDTPFTVFSPALPVNGRTVYQGYLFVMNQLLAESGMRHHPVNPMTDSYLPRLVEAQSTGRCGVVSAHVFEQGVDAVRQELARLQQEGYRYAVLDALTEHHLEIQGEALRDAPLVTGGSGLAIGLARQWAQENGNQARKAGRPLAGRGVVLSGSCSQMTNRQVAHYRQIAPAREVDVARCLSIETLAAYAHELAEWVLGQESVLAPLVFATASTDALAAIQQQYGAQKASQAVETLFSQLAARLAAEGVTRFIVAGGETSGVVTQSLGIKGFHIGPTISPACREGHHHHHH", "soluble on expression in E. coli": "not soluble"}
{"sequence": "MSDVAIVKEGWLHKRGEYIKTWRPRYFLLKNDGTFIGYKERPQDVDQREAPLNNFSVAQCQLMKTERPRPNTFIIRCLQWTTVIERTFHVETPEEREEWTTAIQTVADGLKKQEEEEMDFRSG", "soluble on expression in E. coli": "soluble"}
{"sequence": "SAAARATTPADGEEPAPEAEALAAARERSSRFLSGLELVKQGAEARVFRGHFQGRAAVIKHRFPKGYRHPALEARLGRRRTVQEARALLRCRRAGISAPVVFFVDYASNCLYMEEIEGSVTVRDYIQSTMETEKTPQGLSNLAKTIGQVLARMHDEDLIHGDLTTSNMLLKPPLEQLNIVLIDFGLSFISALPEDKGVDLYVLEKAFLSTHPNTETVFEAFLKSYSTSSKKARPVLKKLDEVRLRGRKRSMVG", "soluble on expression in E. coli": "soluble"}
{"sequence": "MPRLILASTSPWRRALLEKLTIPFECAAPDVDETPMPGEAPRQLVLRLAQAKAQSLAARFPNHLIIGSDQICVLDGEITGKPLTEEKARQQLAKASGNIVTFYTGLALYNSASGHLQTEVEPFDVHFRHLSEAEIDDYVRKEHPLHCAGSFKSEGLGIALFERLEGRDPNTLIGLPLIALCQMLRREGFNPLQQ", "soluble on expression in E. coli": "not soluble"}
{"sequence": "GPGSMQSNAPFDPEREALRNEAIKKTVERNVTQARLKKVNDDVKLQQRELDKVEDQVNALLSIGHYVGEVLKRVDEERFIVKSISGARHLVGYRKSIKPEKLKFGARVALEITTFTIVKVLPREVDPQVYSMQYMSSDKDVSFQDIGGLQPQMRQMREVIELPLTNPELFVRVGIAPPKGVLLYGPPGTGKTLLAKAIAANVDAAFLKIVASSIVDKYIGESARVIREMFAYAREHEPCIIFIDEVDAIGSKRIEGSSSDREIQRTLMELLNQMDGFDKLGKVKVIMATNRPDTLDAALMRPGRLDRKIEIPLPNEAGRLDVLRIHSAKITKKGDIDFESVVKLSEGFNGADLRNVCTEAGMFAIRAGRDYVENSDFNKAVRKVADMKRLEGTAHQYSDQ", "soluble on expression in E. coli": "not soluble"}
{"sequence": "STGQGQSASGSSAWSTVFRHVRYENLIAGVSGGVLSNLALHPLDLVKIRFAVSDGLELRPKYNGILHCLTTIWKLDGLRGLYQGVTPNIWGAGLSWGLYFFFYNAIKSYKTEGRAERLEATEYLVSAAEAGAMTLCITNPLWVTKTRLMLQYDAVVNSPHRQYKGMFDTLVKIYKYEGVRGLYKGFVPGLFGTSHGALQFMAYELLKLKYNQHINRLPEAQLSTVEYISVAALSKIFAVAATYPYQVVRARLQDQHMFYSGVIDVITKTWRKEGVGGFYKGIAPNLIRVTPACCITFVVYENVSHFLLDLREKRK", "soluble on expression in E. coli": "soluble"}
{"sequence": "KHLFDEIDTIDVMDVNAGDHGKKFATNFDPETNMLEIQGDSFYWENGEWKQVPCHSRMLEFEFPNCGSHKVYSMAHDEVRSMKEFIPAKRIEFWMGFGDRYLNYFNVMRDIGLLSPDPLTLHDGTVVQPLHVLKALLPDP", "soluble on expression in E. coli": "not soluble"}
{"sequence": "MSLENDSLEITYLGKRYKISLNNTFSDEMKRTLKERFHNQELNALELLKDYLHESCQNEYLHNELQKLLEKISSCSIT", "soluble on expression in E. coli": "not soluble"}
{"sequence": "HHHHHHMQHLVLIGFMGSGKSSLAQELGLALKLEVLDTDMIISERVGLSVREIFEELGEDNFRMFEKNLIDELKTLKTPHVISTGGGIVMHENLKGLGTTFYLKMDFETLIKRLNQKEREKRPLLNNLTQAKELFEKRQALYEKNASFIIDARGGLNNSLKQVLQFIA", "soluble on expression in E. coli": "soluble"}
{"sequence": "MSLHLSNVILHQLCKNDQDELVVKLRPASLENDASTENLVAELHRVFHSKAGKGFGSFQSDSEFQFWLQEMRKGERDFYDFSQISANRLKEELIKYPFADEGILVFAEYQSLATDYLFIGILPMNQSLKVTEGLDISATDYLDITKMDIAARIDLSSYETDKESNRYLQYIKGRVGRKVADFFLDFLQADIGLDTKQQNLVLMQAVDDFCADSKLEKQEVNEYKKQVYNYCNEQIKSGEEVQISELSGELPPSQDGTSFMDFTKEQGYELEESFPGDRSTVRKLTKYVGAGGGLNISFDSLLLGERIFYDPETDTLTIKGTPPNLKDQLSRNLEHHHHHH", "soluble on expression in E. coli": "soluble"}
{"sequence": "MNNILSEEVLNVTDFTTSRQLTLWKREDLQSPQLDDVAEEVPVALVYNGISHVVMMASPKDLTHFAMGFSLSEGIIDSPREIYGMDVVPSCNGLEVQIDLSSRRFMGLKARRRALAGRTGCGVCGVEQLNDIGKPVQPLPFSQTFNLGNLDRALKHLNDFQPTGKLTGCTHAAAWVMPSGELAGGHEDVGRHVALDKLLGRRATEGEEWRQGAALVSSRASYEMVQKSAMCGVEILFAVSAATTLAVEVAERCNLTLVGFCKPGRATIYTHPQRLIADLEHHHHHH", "soluble on expression in E. coli": "not soluble"}
{"sequence": "MALNDFHVSEPYTLGIELEMQVINPPGYDLSQDSSTLIDAVKPQLTAGEIKHDITESMLEMATGVCRDIDQAAAQLSAMQHVILQAASEHHLGICGGGTHPFQKWQRQEVCDNERYQRTLENFGYLIQQATVFGQHVHVGCANGDDAIYLLHGLSHFVPHFIALSAASPYMQGADTRFACARLNIFSAFPDNGPMPWVSNWQEFAGLFRRLSYTTMIDSIKDLHWDIRPSPAFGTVEVRVMDTPLTLDHAINMAGLIQATAHWLLTERPFKPQEQDYLLYKFNRFQACRYGLEGVLTDAYTGDRRRLADDTLRLLDNVTPSARKLGADSAIDALRLQVKKGGNEAQYMREFIADGGSLIGLVQKHCEIWAGQ", "soluble on expression in E. coli": "soluble"}
{"sequence": "MSLTFYWYPKCGTCRKAKKWLEEHGKEINEIHIAEQPPSKEELKALYEKSGLDLKKFFNTSGMKYRELNLKEKLYHMSEDEQLELLASDGMLIKRPLTTDGEKVTVGFKEDQFEENWA", "soluble on expression in E. coli": "not soluble"}
{"sequence": "YKIEKEQRLGLIPQREGNYEKNKNVLESATVKINYYSSKATSGQAGAAASAAFAKNNNTSDNTQQNQTSSVEAKSVNVTKHSFVQALKKVGFSGSNPLHFNMKLGNSSLSANGVDYYNAVKQALTELG", "soluble on expression in E. coli": "not soluble"}
{"sequence": "MKNAETPVFKLVLFGPESSLGNALMVELLSRQHEVIAVVDDLNRHSPRPGLHFKIGGLGDAHQAEQGAAGGSAVIALLPALAPGDLPGQARLSEALVAGLARTTIRRLLLVGDFDVLDEPGKYSEVERECVAQVVDGLQRSALHWTLINAPQELAGLGMEHFRSTEGTLEPGLAEPLRRLSRIAAGMVDMLELDLHRSEHLNFVV", "soluble on expression in E. coli": "not soluble"}
